# According to patent publication US20110262366A1:
# Starred links: 1 amine or outer side, 2 acyl side, 3 side chain; linkers in the order of their positions; H or OH if unused. Positions of bridges follow the written chain, without caps; N, C: chain ends. Primed or numbered codes have the meaning given here. No end group written: not given here. DPPE′ = dipalmitoylphosphatidylethanolamine; Glutaryl = O=C(CCCC(=O)[*:2])[*:1]
# B1: TKPPR-conjugated fluorescent beads (peptide)
# peptide: TKPPR
# modifications: also: coupled by EDAC to carboxylate-modified fluorescent FluoSpheres beads, many copies per bead
# B2: Linear CTKPPRC (BRU-305) (peptide)
# peptide: CTKPPRC
# B3: Cyclic disulfide CTKPPRC (BRU-306) (peptide)
# peptide: CTKPPRC
# modifications: disulfide 1-7 (inferred)
# B4: DPPE-Glu-GTKPPR (BRU-114) in gas-filled microbubbles (peptide)
# peptide: {DPPE′-Glutaryl}-GTKPPR-OH
# modifications: also: built into phospholipid shell of gas-filled microbubbles
# B5: Tuftsin (TKPR) (peptide)
# peptide: TKPR
# B6: TKPPR tetramer BRU-326 (OG-(TKPPR)4) (peptide)
# peptide: TKPPR-OH
# modifications: not fully specified (N-terminus); printed as OG-(TKPPR)4; also: tetramer: four TKPPR arms on branched scaffold carrying one Oregon Green
# B7: GRGDSP-conjugated fluorescent beads (peptide)
# peptide: GRGDSP
# modifications: also: coupled by EDAC to carboxylate-modified fluorescent FluoSpheres beads
# What was measured:
# [1] = molecular target: endothelial cell receptor on HAEC (human aortic endothelial cells); experiment: TKPPR-beads perfused over HAEC in a parallel plate flow cell, 1.53 dynes/cm^2
# [2] = molecular target: endothelial cell receptor on HAEC (human aortic endothelial cells); experiment: conjugated fluorescent beads on confluent HAEC, static 30 min, image analysis (Example 2, experiment 1)
# [3] = molecular target: endothelial cell receptor on HAEC (human aortic endothelial cells); experiment: competition, 100 µM BRU-305 against 2% BRU-114 microbubbles (competitor) on HAEC, static
# [4] = molecular target: endothelial cell receptor on HAEC (human aortic endothelial cells); experiment: competition, 200 µM BRU-305 against 2% BRU-114 microbubbles (competitor) on HAEC, static
# [5] = molecular target: endothelial cell receptor on HAEC (human aortic endothelial cells); experiment: competition, 50 µM BRU-305 against 2% BRU-114 microbubbles (competitor) on HAEC, static
# [6] = molecular target: endothelial cell receptor on HAEC (human aortic endothelial cells); experiment: competition, 200 µM BRU-306 against 2% BRU-114 microbubbles (competitor) on HAEC, static
# [7] = molecular target: endothelial cell receptor on HAEC (human aortic endothelial cells); experiment: competition, 100 µM BRU-306 against 2% BRU-114 microbubbles (competitor) on HAEC, static
# [8] = molecular target: endothelial cell receptor on HAEC (human aortic endothelial cells); experiment: competition, 50 µM BRU-306 against 2% BRU-114 microbubbles (competitor) on HAEC, static
# [9] = molecular target: endothelial cell receptor on HAEC (human aortic endothelial cells); experiment: microbubbles with 5% BRU-114 on HAEC, static, no competitor
# [10] = molecular target: endothelial cell receptor on HAEC (human aortic endothelial cells); experiment: microbubbles with 5% DPPE-GTKPPR on HAEC, static, after washing
# [11] = molecular target: endothelial cell receptor on HAEC (human aortic endothelial cells); experiment: microbubbles with 5% DPPE-GTKPPR on HAEC, static; cells treated with 1 ng/mL TNFα for 4 h
# [12] = molecular target: endothelial cell receptor on RAEC (rabbit aortic endothelial cells); experiment: microbubbles with 5% DPPE-GTKPPR on RAEC, static, no competitor
# [13] = molecular target: endothelial cell receptor on HAEC (human aortic endothelial cells); experiment: microbubbles with 1% BRU-114 on HAEC, static, no competitor
# [14] = molecular target: endothelial cell receptor on HAEC (human aortic endothelial cells); experiment: microbubbles on HAEC, static, manual counting, 5% against 1% DPPE-GTKPPR
# [15] = molecular target: endothelial cell receptor on HAEC (human aortic endothelial cells); experiment: microbubbles with 5% DPPE-GTKPPR on HAEC, static
# [16] = molecular target: endothelial cell receptor on HAEC (human aortic endothelial cells); experiment: microbubbles with 5% DPPE-GTKPPR on HAEC, static; cells treated with 10 ng/mL TNFα for 4 h
# [17] = molecular target: endothelial cell receptor on HAEC (human aortic endothelial cells); experiment: microbubbles with 5% DPPE-GTKPPR on HAEC, static, no competitor
# [18] = molecular target: KB cells (human epidermoid carcinoma cell line); experiment: microbubbles with 5% DPPE-GTKPPR on KB cells, static
# [19] = molecular target: endothelial cell receptor on HAEC (human aortic endothelial cells); experiment: microbubbles with 5% DPPE-GTKPPR on HAEC, static, no competitor (control)
# [20] = molecular target: endothelial cell receptor on HAEC (human aortic endothelial cells); experiment: microbubbles with 1% DPPE-GTKPPR on HAEC, static, no competition
# [21] = molecular target: endothelial cell receptor on HAEC (human aortic endothelial cells); experiment: microbubbles with 5% DPPE-GTKPPR on HAEC, static; cells treated with 5 ng/mL TNFα for 4 h
# [22] = molecular target: endothelial cell receptor on HAEC (human aortic endothelial cells); experiment: microbubbles with 2% BRU-114 on HAEC, static, no competitor, average of duplicates
# [23] = molecular target: endothelial cell receptor on HAEC (human aortic endothelial cells); experiment: microbubbles with 10% BRU-114 on HAEC, static, no competitor
# [24] = molecular target: endothelial cell receptor on HAEC (human aortic endothelial cells); experiment: microbubbles with 2% BRU-114 on HAEC, static, no competitor (control set to 100)
# [25] = molecular target: endothelial cell receptor on HAEC (human aortic endothelial cells); experiment: microbubbles with 5% DPPE-GTKPPR on HAEC, static; cells treated with 0 ng/mL TNFα for 4 h
# [26] = molecular target: endothelial cell receptor on HAEC (human aortic endothelial cells); experiment: microbubbles with 5% DPPE-GTKPPR on HAEC, static, no competitor (same control as in the 16th table)
# [27] = molecular target: endothelial cell receptor on HAEC (human aortic endothelial cells); experiment: microbubbles with 5% DPPE-GTKPPR on HAEC, static, no competition
# [28] = molecular target: endothelial cell receptor on HAEC (human aortic endothelial cells); experiment: microbubbles with 1% BRU-114 on HAEC, static, no competitor, average of duplicates
# [29] = molecular target: endothelial cell receptor on HAEC (human aortic endothelial cells); experiment: competition, 10 µM tuftsin against 1% BRU-114 microbubbles (competitor) on HAEC, static
# [30] = molecular target: endothelial cell receptor on HAEC (human aortic endothelial cells); experiment: competition, 5 µM tuftsin against 1% BRU-114 microbubbles (competitor) on HAEC, static
# [31] = molecular target: endothelial cell receptor on HAEC (human aortic endothelial cells); experiment: competition, 100 µM tuftsin against 1% BRU-114 microbubbles (competitor) on HAEC, static
# [32] = molecular target: endothelial cell receptor on HAEC (human aortic endothelial cells); experiment: competition, 25 µM tuftsin against 1% BRU-114 microbubbles (competitor) on HAEC, static
# [33] = molecular target: endothelial cell receptor on HAEC (human aortic endothelial cells); experiment: competition, 50 µM tuftsin against 1% BRU-114 microbubbles (competitor) on HAEC, static
# [34] = molecular target: NP-1/Fc (Neuropilin-1/Fc, R&D Systems); experiment: competition with 250 pM ^125I-VEGF165 on NP-1/Fc-coated plates, 4° C., 2 h
# Chain of NP-1/Fc (Neuropilin-1/Fc, R&D Systems) (Q9QWJ9 22-855): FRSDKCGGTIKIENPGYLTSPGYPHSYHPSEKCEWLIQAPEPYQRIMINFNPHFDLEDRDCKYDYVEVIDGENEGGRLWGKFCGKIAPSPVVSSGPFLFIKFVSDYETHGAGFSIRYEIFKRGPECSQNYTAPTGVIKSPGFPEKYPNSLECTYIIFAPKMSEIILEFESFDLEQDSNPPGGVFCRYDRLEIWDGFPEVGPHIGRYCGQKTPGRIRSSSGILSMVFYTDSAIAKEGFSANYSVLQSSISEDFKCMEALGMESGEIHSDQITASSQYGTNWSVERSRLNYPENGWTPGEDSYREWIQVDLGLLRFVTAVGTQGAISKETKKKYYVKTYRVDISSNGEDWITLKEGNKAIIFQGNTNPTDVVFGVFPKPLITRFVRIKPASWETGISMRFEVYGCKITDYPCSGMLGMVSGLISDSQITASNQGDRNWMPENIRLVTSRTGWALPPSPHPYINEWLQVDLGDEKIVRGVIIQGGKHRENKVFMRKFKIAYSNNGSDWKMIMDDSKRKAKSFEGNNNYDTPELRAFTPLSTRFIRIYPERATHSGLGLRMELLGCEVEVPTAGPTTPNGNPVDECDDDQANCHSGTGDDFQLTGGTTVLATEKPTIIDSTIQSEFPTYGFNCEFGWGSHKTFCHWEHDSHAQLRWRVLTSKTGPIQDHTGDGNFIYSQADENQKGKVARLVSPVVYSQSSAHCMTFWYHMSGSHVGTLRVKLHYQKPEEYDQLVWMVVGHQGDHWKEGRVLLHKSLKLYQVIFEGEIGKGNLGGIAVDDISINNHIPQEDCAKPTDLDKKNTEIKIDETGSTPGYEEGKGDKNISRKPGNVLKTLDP
# VEGF receptors on HUVECs = experiment: competition with ^125I-VEGF on HUVECs
binder,measurement,setting,value
B1,beads bound at 1.53 dynes/cm^2,[1],86 beads
same,Integrated density of bound beads (arbitrary units),[2],230
B2,Bubbles Bound % (of control binding),[3],78 % of control
same,Bubbles Bound % (of control binding),[4],88 % of control
same,Bubbles Bound % (of control binding),[5],97 % of control
B3,Bubbles Bound % (of control binding),[6],99 % of control
same,Bubbles Bound % (of control binding),[7],71 % of control
same,Bubbles Bound % (of control binding),[8],97 % of control
B4,Bubbles Bound,[9],2780 bubbles
same,Bubbles Bound,[10],7050 bubbles
same,Bubbles Bound,[11],1520 bubbles
same,RAEC bubbles bound,[12],751 bubbles
same,Bubbles Bound,[13],1640 bubbles
same,% more bubbles bound than with the 1% composition,[14],31%
same,HAEC bubble binding,[15],1120 bubbles
same,Bubbles Bound,[16],1020 bubbles
same,HAEC bubbles bound,[17],1420 bubbles
same,KB cell bubble binding,[18],56 bubbles
same,Bubbles Bound,[19],1250 bubbles
same,Bubbles Bound,[20],555 bubbles
same,Bubbles Bound,[21],1360 bubbles
same,Bubbles Bound,[22],953 bubbles
same,Bubbles Bound,[23],1860 bubbles
same,Bubbles Bound % (of control binding),[24],100 % of control
same,Bubbles Bound,[25],950 bubbles
same,Bubbles Bound,[26],1250 bubbles
same,Bubbles Bound,[27],726 bubbles
same,Bubbles Bound,[28],737 bubbles
B5,Bubbles Bound in presence of competitor,[29],976 bubbles
same,Bubbles Bound in presence of competitor,[30],1150 bubbles
same,Bubbles Bound in presence of competitor,[31],556 bubbles
same,Bubbles Bound in presence of competitor,[32],1170 bubbles
same,Bubbles Bound in presence of competitor,[33],904 bubbles
same,IC50,[34],280 µM
B6,IC50,VEGF receptors on HUVECs,10 µM
B7,Integrated density of bound beads (arbitrary units),[2],28.6
